One substance from US20210373021A1 can be followed below.

The test has as its target SNAP-25 Reporter 1 (human) (UniProt P60880). The test is described as follows: cell-based or functional assay.
UniProt P60880, sequence (P60880 other isoform, or with tags, fused parts or gaps limits assumed): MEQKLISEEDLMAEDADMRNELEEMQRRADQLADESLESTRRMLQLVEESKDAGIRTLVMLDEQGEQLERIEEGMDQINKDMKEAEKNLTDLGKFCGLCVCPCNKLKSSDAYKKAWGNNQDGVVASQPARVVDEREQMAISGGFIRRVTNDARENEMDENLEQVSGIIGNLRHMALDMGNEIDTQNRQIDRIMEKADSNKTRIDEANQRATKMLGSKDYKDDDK

The substance “Galderma BoNT/A drug product QM-1114 (from UniProt P0DPI0 2-1296) (enzyme)” gave an EC50 of SNAP-25 cleavage (Western blot), 4 hours at ambient temperature of 844 U/ml; an EC50 of SNAP-25 cleavage (Western blot), 22 hours at 37° C. of 687 U/ml; an EC50 of SNAP-25 cleavage (Western blot), 22 hours at room temperature of 204 U/ml; an EC50 of uncleaved product in RLU (sandwich ELISA), 22 hours at 37° C. of 112 U/ml. This substance also showed an EC50 of uncleaved product in RLU (sandwich ELISA), 22 hours at room temperature of 55.3 U/ml.
